These results are taken from publication PMC3284512.

Series [1] has as its system MA3 (DNA, aptamer) AACCGCCCAAATCCCTAAGAGTCGGACTGCAACCTATGCTATCGTTGATGTCTGTCCAAGCAACACAGACACACTACACACGCACA
Briefly: fluorescence quenching of doxorubicin. The following applies: aqueous solution, 1 h; Dox 3 nM as printed; intercalation; quenching complete at aptamer/Dox 0.1.

For series [2], the target named is T1, MUC1 peptide1 (APDTRPAPG epitope) (UniProt P15941).
T1 chain: APDTRPAPG
Description: flow cytometry, bead binding; Hanks buffer (binding buffer), 37 C, 30 min, 200 ul; aptamer DNA heated 95 C 5 min then cooled to 0 C (stated for SELEX pool and Dox loading); pH not stated. The note with it: tags: EDC-coupled to carboxylated magnetic beads; label: 5'-FITC.

The target of series [3] is T2, MUC1 peptide2 (entire tandem repeat) (UniProt P15941).
T2 chain: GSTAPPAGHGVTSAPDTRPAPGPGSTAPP
The series is described as above. The following applies: tags: EDC-coupled to magnetic beads; label: 5'-FITC.

`COc1cccc2c1C(=O)c1c(O)c3c(c(O)c1C2=O)C[C@@](O)(C(=O)CO)C[C@@H]3O[C@H]1C[C@H](N)[C@H](O)[C@H](C)O1`: the binding result in series [1] is “yes”.

B1: MA3 (ssDNA)
DNA: AACCGCCCAAATCCCTAAGAGTCGGACTGCAACCTATGCTATCGTTGATGTCTGTCCAAGCAACACAGACACACTACACACGCACA
Regarding B1, in series [2], the affinity, expressed as Kd, was 38.3 nM. Also, in series [3], the binding result is listed as “binds”.
